Laboratory results taken from patent US12139520B2 (priority 2020, dated 2024).
Substitutions are numbered along the chain they refer to. Numbered stars: 1 amine (or outer) side, 2 acyl side, 3 side chain; on linkers, the order of the positions; unused ones are H or OH. Bridge positions count the residues as written; N and C are the ends. Square brackets hold non-standard residues; d marks the D form. Side chains are listed from the residue outwards. Ends that are not written are not given here. * marks the point of attachment. C20 diacid = O=C(O)CCCCCCCCCCCCCCCCCCC(=O)*; γGlu = O=C(O)[C@H](CCC(=O)[*:2])N[*:1]; Hyp = O=C(O)[C@@H]1C[C@@H](O)CN1; AEEA = NCCOCCOCC(=O)O

B1: SEQ ID NO: 7 (peptide)
peptide: KCNTATCTVQRLAAQIYQFTDKDKDNVAPPTNVGSNG[Hyp]-NH2
modifications: disulfide 2-7 (inferred); ends not checked
B2: SEQ ID NO: 6 (peptide)
peptide: KCNTATCTVQRLAEQIYQFTDKDKDNVAPPTNVGSK([AEEA-AEEA-γGlu-C20 diacid])G[Hyp]-NH2
modifications: disulfide 2-7 (inferred); ends not checked
B3: SEQ ID NO: 68 (peptide)
peptide: {C20 diacid-γGlu}-KCNFATCTVQRLAHQIYQFTDKDKDNVAPPTEVGSNG[Hyp]-NH2
modifications: disulfide 2-7 (inferred); not fully specified; ends not checked
B4: SEQ ID NO: 65 (peptide)
peptide: KCNTATCTVQRLAHQIYQFDKDKDNVAPPTNVGSNG[Hyp]-NH2
modifications: disulfide 2-7 (inferred); ends not checked
B5: SEQ ID NO: 58 (peptide)
peptide: KCNTATCATQRLANFLVHSSNNFGAILSSTKVGSNTY
B6: SEQ ID NO: 59 (peptide)
peptide: B5 peptide with S28P, T36G
B7: SEQ ID NO: 53 (peptide)
peptide: KCNTATCTVQRLAHQIYQFTDKDKDNVAAPTNVGSNG[Hyp]-NH2
modifications: disulfide 2-7 (inferred); ends not checked
B8: SEQ ID NO: 71 (peptide)
peptide: {C20 diacid-γGlu}-KCNTATCTVQRLAHQIAQYTDKDKDNVAPPTNVGSNG[Hyp]-NH2
modifications: disulfide 2-7 (inferred); not fully specified; ends not checked
B9: SEQ ID NO: 60 (peptide)
peptide: {C20 diacid-γGlu}-KCNTATCTVQRLAHQIYQFTDKDKDNVAPPTKVGSNG[Hyp]-NH2
modifications: disulfide 2-7 (inferred); not fully specified; ends not checked
B10: SEQ ID NO: 63 (peptide)
peptide: {C20 diacid-γGlu}-KCNTATCTVQRLAEQIYQFTDKDKDNVAPPTAVGSNG[Hyp]-NH2
modifications: disulfide 2-7 (inferred); not fully specified; ends not checked
B11: SEQ ID NO: 67 (peptide)
peptide: {C20 diacid-γGlu}-KCNFATCTVQRLAHQIYQFTDKDKDNVAPRTEVGSNG[Hyp]-NH2
modifications: disulfide 2-7 (inferred); not fully specified; ends not checked
B12: SEQ ID NO: 64 (peptide)
peptide: KCNTATCTVQRLAHQIYQFTDADKDNVAPPTNVGSNG[Hyp]-NH2
modifications: disulfide 2-7 (inferred); ends not checked
B13: SEQ ID NO: 52 (peptide)
peptide: KCNTATCTVQRLAHQIYQFTDKDKDAVAPPTNVGSNG[Hyp]-NH2
modifications: disulfide 2-7 (inferred); ends not checked
B14: SEQ ID NO: 5 (peptide)
peptide: {C20 diacid-γGlu}-KCNTATCTVQRLADQIYQFTDKDKDNVAPPTNVGSNG[Hyp]-NH2
modifications: disulfide 2-7 (inferred); ends not checked
B15: SEQ ID NO: 50 (peptide)
peptide: {C20 diacid-γGlu}-KCNTSTCTVQRLAHQIYQFTDKDKDNVAPPTNVGSNG[Hyp]-NH2
modifications: disulfide 2-7 (inferred); ends not checked
B16: SEQ ID NO: 69 (peptide)
peptide: {C20 diacid-γGlu}-KCNTATCTVQRLAHQIAQFTDKDKDNVAPPTNVGSNS[Hyp]-NH2
modifications: disulfide 2-7 (inferred); not fully specified; ends not checked
B17: SEQ ID NO: 74 (peptide)
peptide: KCNTATCTVQRLAK([AEEA-AEEA-γGlu-C20 diacid])QIYQFTDKDKDNVAPPTNVGSNG[Hyp]-NH2
modifications: disulfide 2-7 (inferred); not fully specified; ends not checked
B18: SEQ ID NO: 61 (peptide)
peptide: {C20 diacid-γGlu}-KCNTATCTVQRLAHQIAQFTDKDKDNVAPPTNVGSNG[Hyp]-NH2
modifications: disulfide 2-7 (inferred); not fully specified; ends not checked
B19: SEQ ID NO: 62 (peptide)
peptide: {C20 diacid-γGlu}-KCNTSTCTVQRLAHQIAQFTDKDKDNVAPPTNVGSNG[Hyp]-NH2
modifications: disulfide 2-7 (inferred); not fully specified; ends not checked
B20: SEQ ID NO: 70 (peptide)
peptide: GCRFGTCTVQRLAHQIYQFTDKDKDNVAPRTNVGPQG[Hyp]-NH2
modifications: disulfide 2-7 (inferred); ends not checked
B21: SEQ ID NO: 66 (peptide)
peptide: KCNTATCTVQRLAEQIYQFTDKDKDNVSPPTNVGSNG[Hyp]-NH2
modifications: disulfide 2-7 (inferred); ends not checked
B22: SEQ ID NO: 54 (peptide)
peptide: GCRFGTCTVQRLAHFLYQFTDKDKDNVAPRTNVGPQGY
B23: SEQ ID NO: 56 (peptide)
peptide: B22 peptide with P35S, Q36N, G37T
B24: SEQ ID NO: 72 (peptide)
peptide: KCQTATCTVQRLAEQIYQFTDKDKDNVAPPTNVGSNGX
modifications: not fully specified; C20DA-yGlu at N-terminal; Hyp at X38
B25: SEQ ID NO: 57 (peptide)
peptide: {C20 diacid-γGlu}-KCNTATCTVQRLAHQIYQFSDKDKDNVAPPTNVGSNG[Hyp]-NH2
modifications: disulfide 2-7 (inferred); ends not checked
B26: SEQ ID NO: 75 (peptide)
peptide: KCNTATCTVQRLAHQIYQFTDKDKDNVAPPTNVGSNG[Hyp]-NH2
modifications: disulfide 2-7 (inferred); ends not checked
B27: SEQ ID NO: 51 (peptide)
peptide: {C20 diacid-γGlu}-KCNTATCTVQRLAEQIYQFTDKDKDNVAPPTNVGSNG[Hyp]-NH2
modifications: disulfide 2-7 (inferred); ends not checked
B28: SEQ ID NO: 73 (peptide)
peptide: {C20 diacid-γGlu}-KCNTATCTVQRLAEQIYQFTDKDKDNVAPPTQVGSNG[Hyp]-NH2
modifications: disulfide 2-7 (inferred); not fully specified; ends not checked
B29: SEQ ID NO: 55 (peptide)
peptide: {C20 diacid-γGlu}-KCNTATCTVERLAHQIYQFTDKDKDNVAPPTNVGSNG[Hyp]-NH2
modifications: disulfide 2-7 (inferred); ends not checked

Each binder was assayed against T1, hAMY3R (human, UniProt P30988) (assay: cell-based or functional assay).
T1 sequence 1: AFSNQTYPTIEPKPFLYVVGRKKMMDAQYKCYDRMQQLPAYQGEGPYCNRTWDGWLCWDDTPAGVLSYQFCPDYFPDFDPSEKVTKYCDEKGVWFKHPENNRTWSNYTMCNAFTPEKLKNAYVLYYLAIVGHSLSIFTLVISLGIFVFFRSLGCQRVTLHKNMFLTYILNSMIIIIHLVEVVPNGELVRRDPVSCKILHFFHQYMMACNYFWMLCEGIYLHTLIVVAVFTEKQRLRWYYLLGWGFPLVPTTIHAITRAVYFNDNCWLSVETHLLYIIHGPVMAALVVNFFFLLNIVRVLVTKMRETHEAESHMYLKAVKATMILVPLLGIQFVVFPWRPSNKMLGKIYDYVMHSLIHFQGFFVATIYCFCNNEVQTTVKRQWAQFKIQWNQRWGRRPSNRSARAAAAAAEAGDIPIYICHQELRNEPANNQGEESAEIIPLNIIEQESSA
T1 sequence 2: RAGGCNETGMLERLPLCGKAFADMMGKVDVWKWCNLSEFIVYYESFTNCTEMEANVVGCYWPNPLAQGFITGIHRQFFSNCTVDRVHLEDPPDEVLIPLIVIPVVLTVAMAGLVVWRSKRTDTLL
With B1 the “hAMY3R EC50 (cAMP)” value was 0.006 nM.
With B2 the “hAMY3R EC50 (cAMP)” value was 0.006 nM.
With B3 the “hAMY3R EC50 (cAMP)” value was 0.013 nM.
With B4 the “hAMY3R EC50 (cAMP)” value was 0.012 nM.
In the case of B5, the “hAMY3R EC50 (cAMP)” value is reported as 0.012 nM.
For B6, the “hAMY3R EC50 (cAMP)” value was 0.012 nM.
In the case of B7, the “hAMY3R EC50 (cAMP)” value is reported as 0.011 nM.
In the case of B8, the “hAMY3R EC50 (cAMP)” value is reported as 0.013 nM.
For B9, the “hAMY3R EC50 (cAMP)” value was 0.012 nM.
For B10, the “hAMY3R EC50 (cAMP)” value was 0.012 nM.
In the case of B11, the “hAMY3R EC50 (cAMP)” value is reported as 0.013 nM.
For B12, the “hAMY3R EC50 (cAMP)” value was 0.012 nM.
For B13, the “hAMY3R EC50 (cAMP)” value was 0.011 nM.
In the case of B14, the “hAMY3R EC50 (cAMP)” value is reported as 0.006 nM.
B15 was tested, and the “hAMY3R EC50 (cAMP)” value was 0.011 nM.
For B16, the “hAMY3R EC50 (cAMP)” value was 0.013 nM.
For B17, the “hAMY3R EC50 (cAMP)” value was 0.013 nM.
With B18 the “hAMY3R EC50 (cAMP)” value was 0.012 nM.
For B19, the “hAMY3R EC50 (cAMP)” value was 0.012 nM.
With B20 the “hAMY3R EC50 (cAMP)” value was 0.013 nM.
B21 was tested, and the “hAMY3R EC50 (cAMP)” value was 0.012 nM.
With B22 the “hAMY3R EC50 (cAMP)” value was 0.012 nM.
With B23 the “hAMY3R EC50 (cAMP)” value was 0.012 nM.
With B24 the “hAMY3R EC50 (cAMP)” value was 0.013 nM.
In the case of B25, the “hAMY3R EC50 (cAMP)” value is reported as 0.012 nM.
In the case of B26, the “hAMY3R EC50 (cAMP)” value is reported as 0.013 nM.
For B27, the “hAMY3R EC50 (cAMP)” value was 0.011 nM.
B28 was tested, and the “hAMY3R EC50 (cAMP)” value was 0.013 nM.
For B29, the “hAMY3R EC50 (cAMP)” value was 0.012 nM.

Each binder was assayed against hAM1R (human, UniProt Q16602) (assay: cell-based or functional assay).
B1 was tested, and the “hAM1R EC50 (cAMP)” value was > 5000 nM.
For B2, the “hAM1R EC50 (cAMP)” value was > 5000 nM.
With B3 the “hAM1R EC50 (cAMP)” value was 255 nM.
B4 was tested, and the “hAM1R EC50 (cAMP)” value was > 5000 nM.
In the case of B5, the “hAM1R EC50 (cAMP)” value is reported as > 5000 nM.
With B6 the “hAM1R EC50 (cAMP)” value was > 5000 nM.
B7 was tested, and the “hAM1R EC50 (cAMP)” value was > 5000 nM.
With B8 the “hAM1R EC50 (cAMP)” value was > 5000 nM.
In the case of B9, the “hAM1R EC50 (cAMP)” value is reported as > 5000 nM.
B10 was tested, and the “hAM1R EC50 (cAMP)” value was > 5000 nM.
B11 was tested, and the “hAM1R EC50 (cAMP)” value was 116 nM.
With B12 the “hAM1R EC50 (cAMP)” value was > 5000 nM.
With B13 the “hAM1R EC50 (cAMP)” value was > 5000 nM.
In the case of B14, the “hAM1R EC50 (cAMP)” value is reported as > 5000 nM.
In the case of B15, the “hAM1R EC50 (cAMP)” value is reported as > 5000 nM.
In the case of B16, the “hAM1R EC50 (cAMP)” value is reported as 680 nM.
With B17 the “hAM1R EC50 (cAMP)” value was > 5000 nM.
For B18, the “hAM1R EC50 (cAMP)” value was > 5000 nM.
B19 was tested, and the “hAM1R EC50 (cAMP)” value was > 5000 nM.
With B20 the “hAM1R EC50 (cAMP)” value was 2980 nM.
In the case of B21, the “hAM1R EC50 (cAMP)” value is reported as > 5000 nM.
With B22 the “hAM1R EC50 (cAMP)” value was 46.2 nM.
With B23 the “hAM1R EC50 (cAMP)” value was 103 nM.
In the case of B24, the “hAM1R EC50 (cAMP)” value is reported as > 5000 nM.
B25 was tested, and the “hAM1R EC50 (cAMP)” value was 590 nM.
With B26 the “hAM1R EC50 (cAMP)” value was > 5000 nM.
For B27, the “hAM1R EC50 (cAMP)” value was > 5000 nM.
For B28, the “hAM1R EC50 (cAMP)” value was > 5000 nM.
In the case of B29, the “hAM1R EC50 (cAMP)” value is reported as 63.8 nM.
